According to patent US20210220451A1:
Like-named read-outs stand apart in the source and are kept apart here.

B1: recombinant nepenthesin I (from N. gracilis, acid-activated) (protein)
chain: APTHSTSRTALNHRHEAKVTGFQIMLEHVDSGKNLTKFQLLERAIERGSRRLQRLEAMLNGPSGVETSVYAGDGEYLMNLSIGTPAQPFSAIMDTGSDLIWTQCQPCTQCFNQSTPIFNPQGSSSFSTLPCSSQLCQALSSPTCSNNFCQYTYGYGDGSETQGSMGTETLTFGSVSIPNITFGCGENNQGFGQGNGAGLVGMGRGPLSLPSQLDVTKFSYCMTPIGSSTPSNLLLGSLANSVTAGSPNTTLIQSSQIPTFYYITLNGLSVGSTRLPIDPSAFALNSNNGTGGIIIDSGTTLTYFVNNAYQSVRQEFISQINLPVVNGSSSGFDLCFQTPSDPSNLQIPTFVMHFDGGDLELPSENYFISPSNGLICLAMGSSSQGMSIFGNIQQ
B2: recombinant nepenthesin II (from N. gracilis, acid-activated) (protein)
chain: QSSSGIETPVYAGDGEYLMNVAIGTPDSSFSAIMDTGSDLIWTQCEPCTQCFSQPTPIFNPQDSSSFSTLPCESQYCQDLPSETCNNNECQYTYGYGDGSTTQGYMATETFTFETSSVPNIAFGCGEDNQGFGQGNGAGLIGMGWGPLSLPSQLGVGQFSYCMTSYGSSSPSTLALGSAASGVPEGSPSTTLIHSSLNPTYYYITLQGITVGGDNLGIPSSTFQLQDDGTGGMIIDSGTTLTYLPQDAYNAVAQAFTDQINLPTVDESSSGLSTCFQQPSDGSTVQVPEISMQFDGGVLNLGEQNILISPAEGVICLAMGSSSQLGISIFGNIQQQETQVLYDLQNLAVSFVPTQCGAS

What was measured:
[1] = molecular target: 33-mer toxic gluten peptide from alpha-gliadin; assay: cell-based or functional assay
[2] = tested on: T1, 33-mer toxic gluten peptide from alpha-gliadin
T1 sequence: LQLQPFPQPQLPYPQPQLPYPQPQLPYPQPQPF

[3] = molecular target: T2, 33-mer toxic gluten peptide from alpha-gliadin
T2 chain: T1 sequence

Molecule | Relative Peak Area (%) of undigested 33-mer by LC-MS after 0.5 h at 100:1 substrate:enzyme, percent of the control without enzyme [3] | further results
high molecular weight fraction (>approx. 10 kDa) of Nepenthes extract (fluid) |  | Relative Peak Area (%) of undigested 33-mer by LC-MS after 0.5 h at 100:1 substrate:enzyme, percent of the control without enzyme [1]: 0%
pepsin |  | Relative Peak Area (%) of undigested 33-mer by LC-MS after 0.5 h at 100:1 substrate:enzyme, percent of the control without enzyme [2]: 93.2%
B1 | 78.7% | 
B2 | 34% | 
